These results are taken from publication PMC3305447, “A Peptidoglycan Fragment Triggers β-lactam Resistance in Bacillus licheniformis” (PLoS Pathogens, 2012).

The target of experiment [1] is T1, MecI (Staphylococcus aureus, UniProt P68261).
T1 construct: full-length with C-terminal His6 (pET22b), recombinant, purified; homodimer; 15N-labelled for NMR
Kind of experiment: agarose-gel EMSA, dissociation of repressor-operator DNA complex. The experiment is classed as binding.
Target sequence in this assay (P68261 1-122): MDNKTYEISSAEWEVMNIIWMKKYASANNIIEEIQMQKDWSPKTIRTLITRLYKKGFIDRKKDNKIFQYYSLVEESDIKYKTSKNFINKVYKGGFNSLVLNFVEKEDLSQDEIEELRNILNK

For experiment [2], the target named is T1, MecI. Kind of experiment: NMR titration, 1H-15N SOFAST-HMQC chemical shifts. The experiment is classed as binding.
Experiment [3] has as its target Staphylococcus aureus MecI repressor (MecI-His) (Staphylococcus aureus ATCC 43300) (UniProt P68261).
The target is the same in experiment [4]. Briefly: native gel or EMSA. Background: In EMSA bound probe runs differently from free probe, usually more slowly.
The target of experiment [5] is Bacillus licheniformis 749/I BlaI repressor (BlaI-His) (Bacillus licheniformis 749/I) (UniProt P06555).
Bacillus licheniformis 749/I BlaI repressor (BlaI-His) (Bacillus licheniformis 749/I), sequence (P06555 whole entry): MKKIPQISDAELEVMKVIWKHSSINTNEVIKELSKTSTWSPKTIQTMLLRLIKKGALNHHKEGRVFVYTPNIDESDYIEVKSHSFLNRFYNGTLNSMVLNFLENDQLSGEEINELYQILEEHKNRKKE

Staphylococcus aureus MecI repressor (MecI-His) (Staphylococcus aureus ATCC 43300), sequence (P68261 whole entry): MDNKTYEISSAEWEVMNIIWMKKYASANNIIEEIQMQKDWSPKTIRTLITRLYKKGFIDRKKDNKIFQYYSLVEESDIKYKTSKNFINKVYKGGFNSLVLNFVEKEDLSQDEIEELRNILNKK

For the compound `NCCCC[C@H](NC(=O)CC[C@@H](N)C(=O)O)C(=O)O` [dipeptide 2, γ-D-Glu-L-Lys], the 50% inhibitory concentration (IC50) – broadly, the midpoint of a concentration-inhibition curve – at MecI [1] was roughly 2 mM. Moreover, the Kd (in general, the concentration at which binding is half-saturated) at MecI [2] was 8 ± 2 mM. For γ-D-Glu-L-Lys dipeptide, the concentration of dipeptide allowing the displacement of 50% of bound MecI from its nucleic operator (agarose gel EMSA titration, 10 to 50 nmol dipeptide in 20 µl) in experiment [3] was found to be 2 mM. In experiment [4], this compound yielded a dissociation constant (Kd) of 2 mM. Consider γ-D-Glu-m-A2pm dipeptide, for which the concentration of dipeptide allowing the displacement of 50% of bound BlaI from its nucleic operator (agarose gel EMSA titration, 10 to 50 nmol dipeptide in 20 µl) in experiment [5] worked out at 2 mM.
